Source: paper PMC9255381

Key:
Assay in all cases: BLI
[1] = target: vWF-A1 of C. minimus (C. minimus (Chironectes))
[2] = target: vWF-A1 of D. albiventus (D. albiventus (Didelphis))
[3] = target: vWF-A1 of D. aurita (made by site-directed mutagenesis of the D. marsupialis construct) (D. aurita (Didelphis))
[4] = target: vWF-A1 of D. marsupialis (D. marsupialis (Didelphis))
[5] = target: vWF-A1 of Didelphis virginiana (Didelphis virginiana)
[6] = target: vWF-A1 of Lutreolina crassicaudata (Lutreolina crassicaudata)
[7] = target: vWF-A1 of Monodelphis domestica (Monodelphis domestica)
[8] = target: vWF-A1 of Monodelphis emiliae (Monodelphis emiliae)
[9] = target: vWF-A1 of P. quica (P. quica (Philander))

Substance: botrocetin (isoform B) (natural protein)
- fold reduction of binding affinity against human vWF [1]: > 8 fold
- fold reduction of binding affinity against human vWF [2]: > 8 fold
- fold reduction of binding affinity against human vWF [3]: 8 fold
- fold reduction of binding affinity against human vWF [4]: > 8 fold
- fold reduction of binding affinity against human vWF [5]: > 8 fold
- fold reduction of binding affinity against human vWF [6]: > 8 fold
- fold reduction of binding affinity against human vWF [7]: > 8 fold
- fold reduction of binding affinity against human vWF [8]: > 8 fold
- fold reduction of binding affinity against human vWF [9]: > 8 fold

Substance: botrocetin (isoform A) (natural protein)
- fold reduction of binding affinity against human vWF [4]: > 8 fold
- fold reduction of binding affinity against human vWF [5]: > 8 fold
